# Data taken from patent US12545899B2, “Luciferase enzymes for use with thermostable luciferins in bioluminescent assays” (Promega Corporation, priority 2018, dated 2026).
# Where a chain is given by its changes, count along the chain named. Names and notes keep the numbering of the source.
# B1: MK0110: SEQ ID NO: 77; H244W (protein)
# chain: MADKNILYGPEPFYPLEDGTAGEQMFDALSRYAAIPGCIALTNAHTKENVLYEEFLKLSCRLAESFKKYGLKQNDTIAVCSENSLQFFLPVIASLYLGIIVAPVNDKYVERELIHSLGIVKPRIVFCSKNTFQKVLNVKSKLKSIETIIILDLNEDLGGYQCLNNFISQNSDSNLDVKKFKPYSFNRDDQVASIMFSSGTTGLPKGVMLTHKNIVARFSIAKDPTFGDAINPTSAILTVIPFHWGFGMMTTLGYFTCGFRVVLMHTFEEKLFLQSLQDYKVESTLLVPTLMAFLAKSALVEKYDFPHLKEIASGGAPLSKEIGEMVKKRFKLNFVRQGYGLTEATSAVLITPKGDAKPGSTGKIVPLHAVKVVDPTTGKILGPNEPGELYFKGPMKMKGYYNNEEATKAIIDNDGWLRSGDIAYYDNDGHFYIVDRLKSLIKYKGYQVAPAEIEGILLQHPYIVDAGVTGIPDEAAGELPAAGVVVQTGKYLNEQIVQDYVASQVSTAKWLRGGVKFLDEIPKGSTGKIDRKVLRQMLEKHTNGHHHHHHHH
# B2: MK0120: SEQ ID NO: 87; H244W+T344A+I396K+S193A+N228D+S306P+I109V (protein)
# chain: B1 chain with S193A, A316M
# B3: MK0124: SEQ ID NO: 91; H244W+T344M+I396K+S193A+N228D+L305F+S306P+I109V (protein)
# chain: B1 chain with S193A, A344I
# B4: MK0123: SEQ ID NO: 90; H244W+T344A+S193A+N228D+L305F+S306P+I109V (protein)
# chain: B1 chain with S193A, T342S
# B5: MK0113: SEQ ID NO: 80; T344A (protein)
# chain: B1 chain with S193A, P306S
# B6: MK0116: SEQ ID NO: 83; I396L (protein)
# chain: B1 chain with S193A, D228N
# B7: MK0119: SEQ ID NO: 86; T344A+I396K+S193A+N228D+L305F+S306P+I109V (protein)
# chain: B1 chain with S193A, V348I
# B8: MK0118: SEQ ID NO: 85; H244W+T344A+I396K+N228D+L305F+S306P+I109V (protein)
# chain: B1 chain with S193A
# B9: MK0109: SEQ ID NO: 76; S193A (protein)
# chain: B1 chain with V109I, S193A
# B10: MK0125: SEQ ID NO: 92; H244W+T344A+I396L+S193A+N228D+L305F+S306P+I109V (protein)
# chain: B1 chain with S193A, A316W, A344I
# B11: MK0111: SEQ ID NO: 78; L305F (protein)
# chain: B1 chain with S193A, W244H
# B12: MK0127: SEQ ID NO: 93; H244W+T344A+I396K+S193A+L305F+S306P+I109V (protein)
# chain: B1 chain with K107N, S193A, T289S
# B13: MK0133: SEQ ID NO: 101; H244W+T344I+I396K+S193A+N228D+L305F+S306P+I109V+C38R+F55I+A316W+T342S+V348I (protein)
# chain: B1 chain with C38R, F55I, Y108F, S193A, A316W, Y339M, A344I
# B14: MK0117: SEQ ID NO: 84; H244W+T344A+I396K+S193A+N228D+L305F+S306P (protein)
# chain: B1 chain with S193A
# B15: MK0122: SEQ ID NO: 89; H244W+I396K+S193A+N228D+L305F+S306P+I109V (protein)
# chain: B1 chain with S193A, Y339M
# B16: MK0121: SEQ ID NO: 88; H244W+T344A+I396K+S193A+N228D+L305F+I109V (protein)
# chain: B1 chain with S193A, A316W
# B17: MK0108: SEQ ID NO: 75; I109V (protein)
# chain: B1 chain with V109I, D228N, W244H, F305L, P306S, A344T, K396L
# B18: MK0114: SEQ ID NO: 81; T344M (protein)
# chain: B1 chain with S193A, A344T
# B19: MK0112: SEQ ID NO: 79; S306P (protein)
# chain: B1 chain with S193A, F305L
# B20: MK0115: SEQ ID NO: 82; I396K (protein)
# chain: B1 chain with S193A, K396I
# B21: MK0159: SEQ ID NO: 124; H244W+S193A+N228D+L305F+S306P+I109V+C38R+F55I+Y108F+A316W+Y339M+T342S+V348I+T284A+T289S+S313T+W510R (protein)
# chain: MADKNILYGPEPFYPLEDGTAGEQMFDALSRYAAIPGRIALTNAHTKENVLYEEILKLSCRLAESFKKYGLKQNDTIAVCSENSLQFFLPVIASLYLGIIVAPVNDKFVERELIHSLGIVKPRIVFCSKNTFQKVLNVKSKLKSIETIIILDLNEDLGGYQCLNNFISQNSDSNLDVKKFKPYSFNRDDQVAAIMFSSGTTGLPKGVMLTHKNIVARFSIAKDPTFGDAINPTSAILTVIPFHWGFGMMTTLGYFTRGFRVVLMHTFEEKLFLQSLQDYKVESALLVPSLMAFLAKSALVEKYDFPHLKEIATGGWPLSKEIGEMVKKRFKLNFVRQGMGLSETTSAILITPRGDAKPGSTGKIVPLHAVKVVDPTTGKILGPNEPGELYFKGPMIMKGYYNNEEATKAIIDNDGWLRSGDIAYYDNDGHFYIVGRRKSLIKYKGYQVAPAEIEGILLQHPYIVDAGVTGIPDEAAGELPAAGVVVQTGKYLNEQIVQDYVASQVSTAKRLRGGVKFLDEIPKGSTGKIDRKVLRQMLEKHTNGHHHHHHHH
# What was measured:
# [1] = Differential scanning fluorimetry (DSF) analysis; type: physicochemical
# Summary of the method: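 Thermal melt with 5× final Sypro Orange: ramp 1° C/min from 30 to 95° C, reading each 60 s, derivative of fluorescence plotted by temperature. Luciferase variants were in 20 mM HEPES pH 7.5, 200 mM NaCl, 1 mM EDTA; other enzymes in 50 mM HEPES pH 7.5, 100 mM NaCl, 2 mM EDTA.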
# [2] = Effect of individual mutations: maximum luminescence with CS0333; type: biochemical; details: for Vmax (RLU) with CS0333: 10 fM to 1 mM CS0333, Detection Reagent (DR) buffer
# Procedure: Experiments were also conducted to evaluate and compare the activities of the various luciferase enzyme variants, including the effects of individual amino acid mutations. To evaluate the effect of individual mutations on luciferase enzyme variants, 0.005 mg/ml luciferase enzyme variant was mixed with 1 mM ATP+10 fM to 1 mM CS0333 in Detection Reagent (DR) buffer.
# [3] = Kinetic analysis of thermostable variants with D/L-luciferin (Table 10); type: biochemical
# Procedure: (§1) Experiments were also conducted to evaluate the activities (i.e. Vmax and Km) of the various thermostable luciferase variants of Ppe (SEQ ID NO: 1) described above.
# (§2) Tables 10 and 11 include representative results of kinetic analysis of the thermostable variants with D/L luciferin, CS0333, and CS0280. […] MK0135 and MK0137 have amino acid substitutions that improve thermostability relative to MK0133 and MK0134, respectively, while retaining activity on the luciferin analogs CS0333 and CS0280.
# [4] = Kinetic analysis of thermostable variants with CS0333 (Table 10); type: biochemical
# Procedure: as §1, §2
# [5] = Kinetic analysis of thermostable variants with CS0280 (Table 10); type: biochemical
# Procedure: as §1, §2
# [6] = Luminescence at 1 mM D/L-luciferin (Table 11); type: biochemical; details: 1 mM substrate, 1 mM ATP
# Text: as §2
# [7] = Luminescence at 1 mM CS0333 (Table 11); type: biochemical; details: 1 mM substrate, 1 mM ATP
# Text: as §2
# [8] = Luminescence at 1 mM CS0280 (Table 11); type: biochemical; details: 1 mM substrate, 1 mM ATP
# Text: as §2
# [9] = Kinetic analysis of thermostable variants with D/L-luciferin (Tables 13, 14); type: biochemical; details: 2 mM ATP
# [10] = Kinetic analysis of thermostable variants with CS0333 (Tables 13, 14); type: biochemical; details: 2 mM ATP
# [11] = Kinetic analysis of thermostable variants with CS0280 (Tables 13, 14); type: biochemical; details: 2 mM ATP
Molecule,DSF Tm (° C.) ([1]; Table 9A),Vmax (RLU) with CS0333 [2],also measured
B1,80 °C,"9,534 RLU","improvement of maximum luminescence with CS0333 above background ([2]; single point mutation introduced into the Ppe variant, DR buffer): ~5 fold"
B2,62 °C,"3,192,740 RLU",–
B3,70 °C,"4,270,690 RLU",–
B4,72 °C,"2,841,640 RLU",–
B5,71 °C,"1,948 RLU",–
B6,73 °C,"7,428 RLU",–
B7,64 °C,"62,167 RLU",–
B8,63 °C,"3,455,610 RLU",–
B9,77 °C,"1,114 RLU",–
B10,69 °C,"2,625,480 RLU",–
B11,79 °C,"1,166 RLU",–
B12,66 °C,"2,293,340 RLU",–
B13,–,–,"DSF Tm (° C.) ([1]; Table 9B): 59 °C; Km ([3]; BrightGlo Buffer): 0.13 µM; Vmax (RLU) ([3]; BrightGlo Buffer): 1,361,878 RLU; Km ([3]; Detection Reagent Buffer): 0.993 µM; Vmax (RLU) ([3]; Detection Reagent Buffer): 1,545,274 RLU; Km ([4]; BrightGlo Buffer): 14 µM; Vmax (RLU) ([4]; BrightGlo Buffer): 27,149,096 RLU; Km ([4]; Detection Reagent Buffer): 77.4 µM; Vmax (RLU) ([4]; Detection Reagent Buffer): 21,861,957 RLU; Km ([5]; BrightGlo Buffer): 5.36 µM; Vmax (RLU) ([5]; BrightGlo Buffer): 2,774,469 RLU; Km ([5]; Detection Reagent Buffer): 41.6 µM; Vmax (RLU) ([5]; Detection Reagent Buffer): 266,359 RLU"
B14,63 °C,"3,820,310 RLU",–
B15,69 °C,"962,171 RLU",–
B16,62 °C,"2,643,970 RLU",–
B17,78 °C,"1,300 RLU",–
B18,70 °C,"1,030 RLU",–
B19,80 °C,"1,232 RLU",–
B20,67 °C,"2,120 RLU",–
B21,–,–,"Vmax (RLU) D/L-luciferin BrightGlo Buffer ([6]; BrightGlo Buffer): 688,326 RLU; Vmax (RLU) D/L-luciferin Detection Reagent Buffer ([6]; Detection Reagent Buffer): 106,195 RLU; Vmax (RLU) CS0333 BrightGlo Buffer ([7]; BrightGlo Buffer): 6,850,630 RLU; Vmax (RLU) CS0333 Detection Reagent Buffer ([7]; Detection Reagent Buffer): 4,630,740 RLU; Vmax (RLU) CS0280 BrightGlo Buffer ([8]; BrightGlo Buffer): 2,094,150 RLU; Vmax (RLU) CS0280 Detection Reagent Buffer ([8]; Detection Reagent Buffer): 110,050 RLU; Km ([9]; BrightGlo Buffer): 0.107 µM; Vmax (RLU) ([9]; BrightGlo Buffer): 2,363,790 RLU; Km ([9]; Detection Reagent Buffer): 0.444 µM; Vmax (RLU) ([9]; Detection Reagent Buffer): 369,822 RLU; Km ([10]; BrightGlo Buffer): 14.7 µM; Vmax (RLU) ([10]; BrightGlo Buffer): 1,528,708 RLU; Km ([10]; Detection Reagent Buffer): 20.9 µM; Vmax (RLU) ([10]; Detection Reagent Buffer): 523,610 RLU; Km ([11]; BrightGlo Buffer): 2.78 µM; Vmax (RLU) ([11]; BrightGlo Buffer): 439,625 RLU; Km ([11]; Detection Reagent Buffer): 602 µM; Vmax (RLU) ([11]; Detection Reagent Buffer): 40,925 RLU"
